For series [1], the target named is T1, StrepSumo-tagged Mit1CII wild type (S. pombe, UniProt Q9P793 1-81).
T1 construct: The Strep-SUMO tag was left on for stabilization; also called wild-type Mit1CII; source: E. coli BL21(DE3) or Rosetta (DE3), purified (Streptactin, SEC); not shown: Strep-SUMO, N-terminal, kept
T1 sequence (looked up): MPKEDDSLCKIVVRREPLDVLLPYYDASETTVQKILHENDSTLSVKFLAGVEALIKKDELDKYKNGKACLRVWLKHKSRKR
The experiment in a line: ITC; 25°C; 400 mM NaCl, 50 mM Tris-HCl pH 7.5, 5 mM β-mercaptoethanol; Chp2 or Swi6 at 100 to 500 µM injected into the cell holding StrepSumo-tagged Mit1 constructs at 5 to 50 µM; VP-ITC or Nano ITC (Mit1CIIΔCDL). Particulars: both partners purified. Background: Isothermal titration calorimetry measures the heat released or taken up as one component is titrated into another.

The target of series [2] is T2, StrepSumo-tagged Mit1CII with engineered PkVvL motif instead of CkIvV (S. pombe, UniProt Q9P793 1-81, PkVvL motif instead of CkIvV).
T2 construct: Mit1, S. pombe, CII, residues 1-81; residues 9-13 CKIVV changed to PKVVL; also called Mit1 PxVxL substitution mutant; PxVxL substitution; source: E. coli BL21(DE3) or Rosetta (DE3), purified (Streptactin, SEC); not shown: Strep-SUMO, N-terminal, kept
T2 sequence (looked up): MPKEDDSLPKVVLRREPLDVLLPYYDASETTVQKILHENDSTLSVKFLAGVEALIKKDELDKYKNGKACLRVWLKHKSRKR
Described as above. Particulars: both partners purified.

The target in series [3] is StrepSumo-tagged Mit1CIIΔCDL (S. pombe). The description is as above.
For series [4], the target named is T3, StrepSumo-tagged Mit1CII I11R (S. pombe, UniProt Q9P793 1-81, I11R).
T3 construct: Mit1, S. pombe, CII, residues 1-81, I11R; also called Mit1I11R; Mit1 I11R; source: E. coli BL21(DE3) or Rosetta (DE3), purified (Streptactin, SEC); not shown: Strep-SUMO, N-terminal, kept
T3 sequence (looked up): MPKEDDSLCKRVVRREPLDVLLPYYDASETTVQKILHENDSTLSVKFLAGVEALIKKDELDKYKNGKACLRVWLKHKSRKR
Described as above. As to conditions: both partners purified.

The target of series [5] is T4, Mit1(1-81), Chp2 interaction interface (CII), tag removed (S. pombe, UniProt Q9P793 1-81).
T4 construct: Mit1, S. pombe, residues 1-81 (CkIvV motif 9-13, linker 15-31, CD-like domain); Density is seen for residues 8-81; also called Mit1CII; source: E. coli BL21(DE3) or Rosetta (DE3), coexpressed with Chp2CSD, purified as a complex (Streptactin, Ulp1, SEC); not shown: Strep-SUMO, N-terminal, cleaved
T4 sequence (looked up): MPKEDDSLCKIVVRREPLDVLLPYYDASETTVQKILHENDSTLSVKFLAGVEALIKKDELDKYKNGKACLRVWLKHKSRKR
The experiment in a line: crystal structure; Mit1(1-81)–Chp2(316-380), coexpressed in E. coli, purified as a complex; hanging drops at 18°C, 2.4 M sodium malonate pH 7, 3% 1,6-hexanediol; 1.6 Å. Particulars: both partners purified.

Series [6] deals with the molecule itself. The series is described as above.

B1: Swi6CSD (domain or fragment, S. pombe, UniProt P40381 267-328, looked up)
chain: DSWEDLVSSIDTIERKDDGTLEIYLTWKNGAISHHPSTITNKKCPQKMLQFYESHLTFRENE
notes: Swi6, HP1 protein, S. pombe, chromoshadow domain (CSD); A crystal structure of the free Swi6CSD dimer (PDB 1E0B) is cited; also called Swi6 chromoshadow domain; source: E. coli BL21(DE3) or Rosetta (DE3), purified (Streptactin, on-column Ulp1 cleavage, SEC); not shown: Strep-SUMO, N-terminal, cleaved
The term Kd denotes the concentration at which binding is half-saturated. Higher therefore signals weaker binding. Take B1: the Kd is 28 µM in series [1] and 15 µM in series [2].

B2: Chp2CSD (expressed alone, tag removed, for ITC) (domain or fragment, S. pombe)
chain: KPPFQKKSWEDLVDCVKTVQQLDNGKLIAKIKWKNGYVSTHDNIIIHQKCPLKIIEYYEAHIKFT
notes: Chp2, S. pombe, chromoshadow domain (CSD); limits 316-380 are printed for the crystallised CSD construct, not for the ITC sample; source: E. coli BL21(DE3) or Rosetta (DE3), purified (Streptactin, Ulp1, MonoS); not shown: Strep-SUMO, N-terminal, cleaved
Consider B2, for which the Kd is 2.2 µM in series [3], 0.0026 µM in series [1], 0.0082 µM in series [2] and 21.5 µM in series [4].

B3: Chp2CSD, Chp2(316-380), untagged, coexpressed with Mit1 fragments (domain or fragment, S. pombe, UniProt O42934 316-380, looked up)
chain: KPPFQKKSWEDLVDCVKTVQQLDNGKLIAKIKWKNGYVSTHDNIIIHQKCPLKIIEYYEAHIKFT
notes: Chp2, S. pombe, chromoshadow domain, residues 316-380; Cloned without tag into pACE2 for coexpression; Limits 316-380 are printed for the crystallised complex; also called chromo shadow domain of Chp2; Chp2CSD2; source: E. coli BL21(DE3) or Rosetta (DE3), coexpressed with Mit1 fragments, purified as a complex
For orientation: stoichiometry N means a count of units in the complex or per binding partner. Take B3: the “stoichiometry N” value in series [5] was 2 Chp2CSD chains per Mit1; in series [6] it was 2.

Values taken from publication PMC6499331, “Transcriptional gene silencing requires dedicated interaction between HP1 protein Chp2 and chromatin remodeler Mit1” (Genes & Development, 2019).
